Results from publication PMC3425544, “The S100A10 Subunit of the Annexin A2 Heterotetramer Facilitates L2-Mediated Human Papillomavirus Infection” (PLoS ONE, 2012).
No end group written: not given here.

What was measured:
[1] = tested on: A2t (annexin A2 heterotetramer); assay: EPR binding of L2 peptide to A2t; parameters: species or system human; conditions: scrambled competitor 5∶1 molar ratio
Source text: Next, we wanted to determine if there was a specific interaction between the L2_108–126 peptide and A2t using electron paramagnetic resonance (EPR) spectroscopy. EPR is a method of magnetic resonance spectroscopy measuring unpaired electrons whose underlying basic concepts are not unlike the more widely used technique of nuclear magnetic resonance (NMR) (reviewed in [43]). When coupled with site-directed paramagnetic-labeling, such as the attachment of a moiety with an unpaired electron to a cysteine residue, EPR can be used to obtain structural information within a small vicinity of the paramagnetic-label’s positions along the protein sequence. As a paramagnetic-label becomes locally constrained, such as when bound to another protein, its spectra will drastically change as visualized by a decrease in line amplitude and increased line-broadening. Therefore, EPR provides an in vitro biochemical method that measures protein-protein interactions by monitoring changes in the spectra recorded for a labeled protein in different experimental settings.
For our purposes, an N-terminal cysteine (with a 3 native aa spacer) contained in the L2_108–126 peptide (C-IVS-[…]) was paramagnetic-labeled (an unpaired-electron-containing small molecule was cross-linked via a disulfide bond to the peptide), and its spectra were analyzed after incubation with and without purified human recombinant A2t or controls. […]
Recombinant annexin A2 was expressed in BL21(DE3) Escherichia coli cells and purified using reversible Ca^2+-dependent binding to negatively charged phospholipid vesicles followed by size exclusion chromatography. […] Concentrations of all proteins and peptides, including the A2t complex, were determined using bicinchoninic acid assays (Pierce Thermo Scientific, Rockford, IL) compared to measured absorbance of albumin standards at 562 nm. […]

[2] = tested on: annexin A2; assay: EPR binding of L2 peptide to annexin A2; conditions: scrambled competitor 5∶1
Procedure: (§1) Recombinant annexin A2 was expressed in BL21(DE3) Escherichia coli cells and purified using reversible Ca^2+-dependent binding to negatively charged phospholipid vesicles followed by size exclusion chromatography. A pET23A vector containing the S100A10 sequence (a gift from Volker Gerke) was expressed in BL21(DE3) cells as previously described. Both proteins were stored at 4°C in 20 mM HEPES buffer at pH 7.4, containing 100 mM NaCl with the addition of 1 mM dithiothreitol. Concentrations of all proteins and peptides, including the A2t complex, were determined using bicinchoninic acid assays (Pierce Thermo Scientific, Rockford, IL) compared to measured absorbance of albumin standards at 562 nm. Purified annexin A2 and S100A10 were combined at a molar ratio of 1∶1 and concentrated to over 8 µg/µl. The mixture was incubated overnight at 4°C, and then loaded onto a superdex 200 10/300 GL (GE Healthcare USA) column equilibrated in the previously mentioned HEPES buffer. The eluted A2t peak was collected and subjected to peptide binding assays.
The L2_108–126 peptides used in our EPR studies were synthesized with a cysteine at the N-terminus, and followed by a spacer of 3 physiological amino acids (C-IVS) preceding the canonical L2_108–126 and L2 scrambled sequences (C-IVS-[…] and C-IVS-[…] respectively). Peptides were combined with 8× molar excess paramagnetic label (1-oxyl-2, 2, 5, 5-tetramethyl-Δ3-pyrroline-3-methyl) (R1) methanethiosulfonate (MTSL), (Toronto Research Chemicals, Canada) and left to react overnight at 4°C. Free label was removed by gel filtration (PD10 GE, United Kingdom). All peptides were solubilized into HEPES buffer. For competition assays, the scrambled peptide was non-paramagnetic labeled with an N-acetylated MTSL paramagnetic-label analog (1-acetyl-2,2,5,5- tetramethyl-Δ3-pyrroline-3-methyl) (R1′) at an 8× molar excess to emulate the paramagnetic label on control peptides. Binding interactions were examined by combining paramagnetically-labeled L2 peptide with A2t, BSA, ANXA2, or S100A10 (20 µM, 100 µM, 100 µM, 100 µM, and 100 µM respectively) in 10 µL volumes of the HEPES buffer, confined by glass capillaries, and measured at room temperature over a period of 24 hours using a Bruker EMX X-band EPR spectrometer. For the cysteine blocked S100A10, S100A10 was treated with R1′ and excess label was removed via gel filtration (see above) before the addition of paramagnetic labeled peptides. […] To quantify the amount of bound peptide spectra of all tested proteins in combination with the L2_108–126 or ScrL2 peptides were compared to the spectra of L2_108–126 or ScrL2 peptides alone in solution using a spectra analyzing software (EPR 130, University of California, Los Angeles). […]

[3] = tested on: S100A10 subunit of A2t; assay: EPR binding of L2 peptide to S100A10; conditions: EPR
Procedure: as §1
The L2_108–126 peptides used in our EPR studies were synthesized with a cysteine at the N-terminus, and followed by a spacer of 3 physiological amino acids (C-IVS) preceding the canonical L2_108–126 and L2 scrambled sequences (C-IVS-[…] and C-IVS-[…] respectively). Peptides were combined with 8× molar excess paramagnetic label (1-oxyl-2, 2, 5, 5-tetramethyl-Δ3-pyrroline-3-methyl) (R1) methanethiosulfonate (MTSL), (Toronto Research Chemicals, Canada) and left to react overnight at 4°C. Free label was removed by gel filtration (PD10 GE, United Kingdom). All peptides were solubilized into HEPES buffer. For competition assays, the scrambled peptide was non-paramagnetic labeled with an N-acetylated MTSL paramagnetic-label analog (1-acetyl-2,2,5,5- tetramethyl-Δ3-pyrroline-3-methyl) (R1′) at an 8× molar excess to emulate the paramagnetic label on control peptides. Binding interactions were examined by combining paramagnetically-labeled L2 peptide with A2t, BSA, ANXA2, or S100A10 (20 µM, 100 µM, 100 µM, 100 µM, and 100 µM respectively) in 10 µL volumes of the HEPES buffer, confined by glass capillaries, and measured at room temperature over a period of 24 hours using a Bruker EMX X-band EPR spectrometer. For the cysteine blocked S100A10, S100A10 was treated with R1′ and excess label was removed via gel filtration (see above) before the addition of paramagnetic labeled peptides. The experiments were done in triplicate with measurements taken at 12 db, in 5 scan intervals. All spectra were normalized to the same number of scans. To quantify the amount of bound peptide spectra of all tested proteins in combination with the L2_108–126 or ScrL2 peptides were compared to the spectra of L2_108–126 or ScrL2 peptides alone in solution using a spectra analyzing software (EPR 130, University of California, Los Angeles). By subtracting the alone peptide spectra from that of the combined samples we derive the spectra of the bound spectra, and based on double integration, relate this spectra to a concentration of the peptide that bound to the target protein.

[4] = tested on: HPV16 infection of COS-1 cells; conditions: pre-incubation, compared to control peptides; ref [28]; cited from earlier work
Source text: Though the interaction between L1 and HSPG appears to be the primary initiator of epithelial cell infection, the electrostatic interaction to the negatively charged polysaccharides is generally thought to be non-specific, and may lead to a cascade of subsequent capsid conformational changes.

[5] = molecular target: T1, recombinant S100A10 (human, UniProt P60903 1-97); assay: electron paramagnetic resonance (EPR) spectroscopy; paramagnetic-labeled peptide (20 µM) mixed with protein (100 µM) in 10 µL HEPES buffer (20 mM HEPES pH 7.4, 100 mM NaCl) in glass capillaries, room temperature; percent bound from subtraction of the free-peptide spectrum and double integration; 'relative' binding constant K = [AB]/[A][B]; conditions: both partners purified
T1 construct: also called S100A10 subunit; p11; source: E. coli BL21(DE3), pET23A vector, purified

[6] = molecular target: T2, recombinant annexin A2 (human, UniProt P07355 1-339); assay: as above; conditions: both partners purified
T2 construct: also called ANXA2; annexin A2 subunit

[7] = molecular target: T3, cysteine-blocked S100A10 (αCys-S100A10) (human, UniProt P60903 1-97); assay: as above; conditions: both partners purified
T3 construct: source: E. coli BL21(DE3), purified, then treated with R1′ and gel filtered

[8] = molecular target: T4, annexin A2 heterotetramer (A2t), purified human recombinant (human, UniProt P07355 1-339; P60903 1-97); assay: as above; conditions: both partners purified
T4 construct: also called A2t complex

[9] = molecular target: T1, recombinant S100A10; assay: electron paramagnetic resonance (EPR) spectroscopy; conditions: both partners purified
[10] = molecular target: T2, recombinant annexin A2; assay: electron paramagnetic resonance (EPR) spectroscopy; conditions: both partners purified
[11] = molecular target: T4, annexin A2 heterotetramer (A2t), …; assay: electron paramagnetic resonance (EPR) spectroscopy; conditions: both partners purified
[12] = molecular target: T4, annexin A2 heterotetramer (A2t), …; assay: cell-based or functional assay

T4 sequence (P07355 whole entry, chain 1 of 2): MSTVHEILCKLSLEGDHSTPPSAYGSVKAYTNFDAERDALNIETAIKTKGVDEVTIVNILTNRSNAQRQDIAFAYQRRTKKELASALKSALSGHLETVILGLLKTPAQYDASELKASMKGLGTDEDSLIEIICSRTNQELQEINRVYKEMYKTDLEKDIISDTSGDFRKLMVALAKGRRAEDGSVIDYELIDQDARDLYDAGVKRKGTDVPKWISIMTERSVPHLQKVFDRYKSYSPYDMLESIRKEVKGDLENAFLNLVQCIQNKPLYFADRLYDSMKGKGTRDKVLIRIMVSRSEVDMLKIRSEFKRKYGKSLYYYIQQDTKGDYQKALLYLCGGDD
T4 sequence (P60903 whole entry, chain 2 of 2): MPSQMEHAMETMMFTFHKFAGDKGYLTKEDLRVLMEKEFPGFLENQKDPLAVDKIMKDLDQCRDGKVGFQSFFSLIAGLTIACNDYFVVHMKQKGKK
T1 sequence (P60903 whole entry): as the sequence (P60903 whole entry, chain 2 of 2) above
T2 sequence (P07355 whole entry): as the sequence (P07355 whole entry, chain 1 of 2) above
T3 sequence (P60903 whole entry): as the sequence (P60903 whole entry, chain 2 of 2) above

## C-IVS-IESPVSDTALGTPEIFVSA [ScrL2, scrambled version of the L2_108–126 peptide, reference compound]
[1]
  competition for L2_108–126 – A2t interaction: No significant changes in spectra signal were observed
[2]
  competition for L2 peptide – annexin A2 interaction: partially competed off
[3]; S100A10 cysteine-blocked with R1′ (αCys-S100A10), paramagnetic-labeled peptide, mean of three separate experiments
  relative % bound to cysteine-blocked S100A10: 6.3%
[3]; scrambled competitor 5∶1
  competition for L2 peptide – S100A10 interaction: minimally competed off

## L2_108–120: L2_108–120 peptide of ref 28 (LVEETSFIDAGAP; UniProt P03107 108-120, looked up, fragment)
[4]
  reduction of infection of COS-1 cells: approximately 60%

B1: HPV16 L2_(108–126) peptide, paramagnetic-labeled (C-IVS-LVEETSFIDAGAPTSVPSI) (peptide)
peptide: CIVSLVEETSFIDAGAPTSVPSI
modifications: also: paramagnetic label, site not given here
notes: source: synthetic peptide (Synthetic Biomolecules or Biomer Technology), HPLC purified to >95%
[5]
  Ka: 150000 M⁻¹
  percent of peptide bound: 92.5%
[6]
  percent of peptide bound: 23.6%
[7]
  percent of peptide bound: 73.1%
[8]
  Ka: 100000 M⁻¹
  percent of peptide bound: 78%
[9]
  percent of peptide bound with ScrL2 at 5:1: 91%
[10]
  percent of peptide bound with ScrL2 at 5:1: 17.7%
[11]
  percent of peptide bound with ScrL2 at 5:1: 75.8%

B2: HPV16 L1–L2(GGDD) mutant pseudovirions (complex, human papillomavirus type 16)
chain 1: MSLWLPSEATVYLPPVPVSKVVSTDEYVARTNIYYHAGTSRLLAVGHPYFPIKKPNNNKILVPKVSGLQYRVFRIHLPDPNKFGFPDTSFYNPDTQRLVWACVGVEVGRGQPLGVGISGHPLLNKLDDTENASAYAANAGVDNRECISMDYKQTQLCLIGCKPPIGEHWGKGSPCTNVAVNPGDCPPLELINTVIQDGDMVDTGFGAMDFTTLQANKSEVPLDICTSICKYPDYIKMVSEPYGDSLFFYLRREQMFVRHLFNRAGAVGENVPDDLYIKGSGSTANLASSNYFPTPSGSMVTSDAQIFNKPYWLQRAQGHNNGICWGNQLFVTVVDTTRSTNMSLCAAISTSETTYKNTNFKEYLRHGEEYDLQFIFQLCKITLTADVMTYIHSMNSTILEDWNFGLQPPPGGTLEDTYRFVTSQAIACQKHTPPAPKEDPLKKYTFWEVNLKEKFSADLDQFPLGRKFLLQAGLKAKPKFTLGKRKATPTTSSTSTTAKRKKRKL
chain 2: MRHKRSAKRTKRASATQLYKTCKQAGTCPPDIIPKVEGKTIAEQILQYGSMGVFFGGLGIGTGSGTGGRTGYIPLGTRPPTATDTLAPVRPPLTVDPVGPSDPSIVSGGDDTSFIDAGAPTSVPSIPPDVSGFSITTSTDTTPAILDINNTVTTVTTHNNPTFTDPSVLQPPTPAETGGHFTLSSSTISTHNYEEIPMDTFIVSTNPNTVTSSTPIPGSRPVARLGLYSRTTQQVKVVDPAFVTTPTKLITYDNPAYEGIDVDNTLYFSSNDNSINIAPDPDFLDIVALHRPALTSRRTGIRYSRIGNKQTLRTRSGKSIGAKVHYYYDLSTIDPAEEIELQTITPSTYTTTSHAASPTSINNGLYDIYADDFITDTSTTPVPSVPSTSLSGYIPANTTIPFGGAYNIPLVSGPDIPINITDQAPSLIPIVPGSPQYTIIADAGDFYLHPSYYMLRKRRKRLPYFFSDVSLAA
[12]
  pseudo-infection of HaCaT cells (percent GFP-positive, 48 h) by the mutant PsV against wild-type PsV: > 10 fold reduction
